Measured values as given in PMC7954794, “Protein context shapes the specificity of SH3 domain-mediated interactions in vivo” (Nature Communications, 2021).

B1: S. cerevisiae Abp1 (full length; SH3 domain 535-592 mutated) / Hua2 (parent)
chain 1: MALEPIDYTTHSREIDAEYLKIVRGSDPDTTWLIISPNAKKEYEPESTGSSFHDFLQLFDETKVQYGLARVSPPGSDVEKIIIIGWCPDSAPLKTRASFAANFAAVANNLFKGYHVQVTARDEDDLDENELLMKISNAAGARYSIQTSSKQQGKASTPPVKKSFTPSKSPAPVSKKEPVKTPSPAPAAKISSRVNDNNDDDDWNEPELKERDFDQAPLKPNQSSYKPIGKIDLQKVIAEEKAKEDPRLVQKPTAAGSKIDPSSDIANLKNESKLKRDSEFNSFLGTTKPPSMTESSLKNDDDKVIKGFRNEKSPAQLWAERKAKQNSGNAETKAEAPKPEVPEDEPEGEPDVKDLKSKFEGLAASEKEEEEMENKFAPPPKKSEPTIISPKPFSKPQEPVKAEEAEQPKTDYKKIGNPLPGMHIEADNEEEPEENDDDWDDDEDEAAQPPLPSRNVASGAPVQKEEPEQEEIAPSLPSRNSIPAPKQEEAPEQAPEEEIEEEAEEAAPQLPSRSSAAPPPPPRRATPEKKPKENPWATAEYDYDAAEDNELTFVENDKIINIEFVDDDWWLGELEKDGSKGLFPSNYVSLGN
chain 2: MQQTKFGKMYLDHDSVVEYSEDEIVEADRITLGYKKRLSMIENQMRHLLEDFSLDVQQIEPILADLQKYYDAFLQLLQKRNKSLQCKRSTHQPVPSPMNSQTSTNAKVNLSGKLMKFQLNSVQKFDEENILRILQNKIEFEHYFQIDKGKKQKVLLLAVYQCLNGPTRLHKVLNIEGIIHNNSIRTILGKQVSSSKWTVFLYDVKLVLLAHRQDVPNLETSKMIVRYGDLFPCALYFKDHTAY

Variants of: B1
Assay: DHFR protein-fragment complementation in yeast (Abp1-DHFR F[1,2] x partner-DHFR F[3]), deep mutational scanning, second methotrexate selection vs reference
Settings: with Hua2; S. cerevisiae, DHFR-PCA selection in liquid with methotrexate at 30 C, two 72 h selections (the score uses the second); reference = the pre-selection culture; not an affinity; scale: DMS score: mean over two replicates of log2(f_test/f_ref + 0.5)/ln 2, minus the synonymous-codon median

Row | screen value | Variant
1 | -2.72 | chain 1 MALEPIDYTTHSREIDAEYLKIVRGSDPDTTWLIISPNAKKEYEPESTGSSFHDFLQLFDETKVQYGLARVSPPGSDVEKIIIIGWCPDSAPLKTRASFAANFAAVANNLFKGYHVQVTARDEDDLDENELLMKISNAAGARYSIQTSSKQQGKASTPPVKKSFTPSKSPAPVSKKEPVKTPSPAPAAKISSRVNDNNDDDDWNEPELKERDFDQAPLKPNQSSYKPIGKIDLQKVIAEEKAKEDPRLVQKPTAAGSKIDPSSDIANLKNESKLKRDSEFNSFLGTTKPPSMTESSLKNDDDKVIKGFRNEKSPAQLWAERKAKQNSGNAETKAEAPKPEVPEDEPEGEPDVKDLKSKFEGLAASEKEEEEMENKFAPPPKKSEPTIISPKPFSKPQEPVKAEEAEQPKTDYKKIGNPLPGMHIEADNEEEPEENDDDWDDDEDEAAQPPLPSRNVASGAPVQKEEPEQEEIAPSLPSRNSIPAPKQEEAPEQAPEEEIEEEAEEAAPQLPSRSSAAPPPPPRRATPEKKPKENPWATPEYDYDAAEDNELTFVENDKIINIEFVDDDWWLGELEKDGSKGLFPSNYVSLGN [chain 1 A539P]
2 | -1.72 | chain 1 MALEPIDYTTHSREIDAEYLKIVRGSDPDTTWLIISPNAKKEYEPESTGSSFHDFLQLFDETKVQYGLARVSPPGSDVEKIIIIGWCPDSAPLKTRASFAANFAAVANNLFKGYHVQVTARDEDDLDENELLMKISNAAGARYSIQTSSKQQGKASTPPVKKSFTPSKSPAPVSKKEPVKTPSPAPAAKISSRVNDNNDDDDWNEPELKERDFDQAPLKPNQSSYKPIGKIDLQKVIAEEKAKEDPRLVQKPTAAGSKIDPSSDIANLKNESKLKRDSEFNSFLGTTKPPSMTESSLKNDDDKVIKGFRNEKSPAQLWAERKAKQNSGNAETKAEAPKPEVPEDEPEGEPDVKDLKSKFEGLAASEKEEEEMENKFAPPPKKSEPTIISPKPFSKPQEPVKAEEAEQPKTDYKKIGNPLPGMHIEADNEEEPEENDDDWDDDEDEAAQPPLPSRNVASGAPVQKEEPEQEEIAPSLPSRNSIPAPKQEEAPEQAPEEEIEEEAEEAAPQLPSRSSAAPPPPPRRATPEKKPKENPWATSEYDYDAAEDNELTFVENDKIINIEFVDDDWWLGELEKDGSKGLFPSNYVSLGN [chain 1 A539S]
3 | -2.3 | chain 1 MALEPIDYTTHSREIDAEYLKIVRGSDPDTTWLIISPNAKKEYEPESTGSSFHDFLQLFDETKVQYGLARVSPPGSDVEKIIIIGWCPDSAPLKTRASFAANFAAVANNLFKGYHVQVTARDEDDLDENELLMKISNAAGARYSIQTSSKQQGKASTPPVKKSFTPSKSPAPVSKKEPVKTPSPAPAAKISSRVNDNNDDDDWNEPELKERDFDQAPLKPNQSSYKPIGKIDLQKVIAEEKAKEDPRLVQKPTAAGSKIDPSSDIANLKNESKLKRDSEFNSFLGTTKPPSMTESSLKNDDDKVIKGFRNEKSPAQLWAERKAKQNSGNAETKAEAPKPEVPEDEPEGEPDVKDLKSKFEGLAASEKEEEEMENKFAPPPKKSEPTIISPKPFSKPQEPVKAEEAEQPKTDYKKIGNPLPGMHIEADNEEEPEENDDDWDDDEDEAAQPPLPSRNVASGAPVQKEEPEQEEIAPSLPSRNSIPAPKQEEAPEQAPEEEIEEEAEEAAPQLPSRSSAAPPPPPRRATPEKKPKENPWATEEYDYDAAEDNELTFVENDKIINIEFVDDDWWLGELEKDGSKGLFPSNYVSLGN [chain 1 A539E]
4 | -2.8 | chain 1 MALEPIDYTTHSREIDAEYLKIVRGSDPDTTWLIISPNAKKEYEPESTGSSFHDFLQLFDETKVQYGLARVSPPGSDVEKIIIIGWCPDSAPLKTRASFAANFAAVANNLFKGYHVQVTARDEDDLDENELLMKISNAAGARYSIQTSSKQQGKASTPPVKKSFTPSKSPAPVSKKEPVKTPSPAPAAKISSRVNDNNDDDDWNEPELKERDFDQAPLKPNQSSYKPIGKIDLQKVIAEEKAKEDPRLVQKPTAAGSKIDPSSDIANLKNESKLKRDSEFNSFLGTTKPPSMTESSLKNDDDKVIKGFRNEKSPAQLWAERKAKQNSGNAETKAEAPKPEVPEDEPEGEPDVKDLKSKFEGLAASEKEEEEMENKFAPPPKKSEPTIISPKPFSKPQEPVKAEEAEQPKTDYKKIGNPLPGMHIEADNEEEPEENDDDWDDDEDEAAQPPLPSRNVASGAPVQKEEPEQEEIAPSLPSRNSIPAPKQEEAPEQAPEEEIEEEAEEAAPQLPSRSSAAPPPPPRRATPEKKPKENPWATGEYDYDAAEDNELTFVENDKIINIEFVDDDWWLGELEKDGSKGLFPSNYVSLGN [chain 1 A539G]
5 | -2.14 | chain 1 MALEPIDYTTHSREIDAEYLKIVRGSDPDTTWLIISPNAKKEYEPESTGSSFHDFLQLFDETKVQYGLARVSPPGSDVEKIIIIGWCPDSAPLKTRASFAANFAAVANNLFKGYHVQVTARDEDDLDENELLMKISNAAGARYSIQTSSKQQGKASTPPVKKSFTPSKSPAPVSKKEPVKTPSPAPAAKISSRVNDNNDDDDWNEPELKERDFDQAPLKPNQSSYKPIGKIDLQKVIAEEKAKEDPRLVQKPTAAGSKIDPSSDIANLKNESKLKRDSEFNSFLGTTKPPSMTESSLKNDDDKVIKGFRNEKSPAQLWAERKAKQNSGNAETKAEAPKPEVPEDEPEGEPDVKDLKSKFEGLAASEKEEEEMENKFAPPPKKSEPTIISPKPFSKPQEPVKAEEAEQPKTDYKKIGNPLPGMHIEADNEEEPEENDDDWDDDEDEAAQPPLPSRNVASGAPVQKEEPEQEEIAPSLPSRNSIPAPKQEEAPEQAPEEEIEEEAEEAAPQLPSRSSAAPPPPPRRATPEKKPKENPWDTAEYDYDAAEDNELTFVENDKIINIEFVDDDWWLGELEKDGSKGLFPSNYVSLGN [chain 1 A537D]
6 | -2.01 | chain 1 MALEPIDYTTHSREIDAEYLKIVRGSDPDTTWLIISPNAKKEYEPESTGSSFHDFLQLFDETKVQYGLARVSPPGSDVEKIIIIGWCPDSAPLKTRASFAANFAAVANNLFKGYHVQVTARDEDDLDENELLMKISNAAGARYSIQTSSKQQGKASTPPVKKSFTPSKSPAPVSKKEPVKTPSPAPAAKISSRVNDNNDDDDWNEPELKERDFDQAPLKPNQSSYKPIGKIDLQKVIAEEKAKEDPRLVQKPTAAGSKIDPSSDIANLKNESKLKRDSEFNSFLGTTKPPSMTESSLKNDDDKVIKGFRNEKSPAQLWAERKAKQNSGNAETKAEAPKPEVPEDEPEGEPDVKDLKSKFEGLAASEKEEEEMENKFAPPPKKSEPTIISPKPFSKPQEPVKAEEAEQPKTDYKKIGNPLPGMHIEADNEEEPEENDDDWDDDEDEAAQPPLPSRNVASGAPVQKEEPEQEEIAPSLPSRNSIPAPKQEEAPEQAPEEEIEEEAEEAAPQLPSRSSAAPPPPPRRATPEKKPKENPWVTAEYDYDAAEDNELTFVENDKIINIEFVDDDWWLGELEKDGSKGLFPSNYVSLGN [chain 1 A537V]
7 | -1.87 | chain 1 MALEPIDYTTHSREIDAEYLKIVRGSDPDTTWLIISPNAKKEYEPESTGSSFHDFLQLFDETKVQYGLARVSPPGSDVEKIIIIGWCPDSAPLKTRASFAANFAAVANNLFKGYHVQVTARDEDDLDENELLMKISNAAGARYSIQTSSKQQGKASTPPVKKSFTPSKSPAPVSKKEPVKTPSPAPAAKISSRVNDNNDDDDWNEPELKERDFDQAPLKPNQSSYKPIGKIDLQKVIAEEKAKEDPRLVQKPTAAGSKIDPSSDIANLKNESKLKRDSEFNSFLGTTKPPSMTESSLKNDDDKVIKGFRNEKSPAQLWAERKAKQNSGNAETKAEAPKPEVPEDEPEGEPDVKDLKSKFEGLAASEKEEEEMENKFAPPPKKSEPTIISPKPFSKPQEPVKAEEAEQPKTDYKKIGNPLPGMHIEADNEEEPEENDDDWDDDEDEAAQPPLPSRNVASGAPVQKEEPEQEEIAPSLPSRNSIPAPKQEEAPEQAPEEEIEEEAEEAAPQLPSRSSAAPPPPPRRATPEKKPKENPWTTAEYDYDAAEDNELTFVENDKIINIEFVDDDWWLGELEKDGSKGLFPSNYVSLGN [chain 1 A537T]
8 | -2.58 | chain 1 MALEPIDYTTHSREIDAEYLKIVRGSDPDTTWLIISPNAKKEYEPESTGSSFHDFLQLFDETKVQYGLARVSPPGSDVEKIIIIGWCPDSAPLKTRASFAANFAAVANNLFKGYHVQVTARDEDDLDENELLMKISNAAGARYSIQTSSKQQGKASTPPVKKSFTPSKSPAPVSKKEPVKTPSPAPAAKISSRVNDNNDDDDWNEPELKERDFDQAPLKPNQSSYKPIGKIDLQKVIAEEKAKEDPRLVQKPTAAGSKIDPSSDIANLKNESKLKRDSEFNSFLGTTKPPSMTESSLKNDDDKVIKGFRNEKSPAQLWAERKAKQNSGNAETKAEAPKPEVPEDEPEGEPDVKDLKSKFEGLAASEKEEEEMENKFAPPPKKSEPTIISPKPFSKPQEPVKAEEAEQPKTDYKKIGNPLPGMHIEADNEEEPEENDDDWDDDEDEAAQPPLPSRNVASGAPVQKEEPEQEEIAPSLPSRNSIPAPKQEEAPEQAPEEEIEEEAEEAAPQLPSRSSAAPPPPPRRATPEKKPKENPWPTAEYDYDAAEDNELTFVENDKIINIEFVDDDWWLGELEKDGSKGLFPSNYVSLGN [chain 1 A537P]
9 | -2.6 | chain 1 MALEPIDYTTHSREIDAEYLKIVRGSDPDTTWLIISPNAKKEYEPESTGSSFHDFLQLFDETKVQYGLARVSPPGSDVEKIIIIGWCPDSAPLKTRASFAANFAAVANNLFKGYHVQVTARDEDDLDENELLMKISNAAGARYSIQTSSKQQGKASTPPVKKSFTPSKSPAPVSKKEPVKTPSPAPAAKISSRVNDNNDDDDWNEPELKERDFDQAPLKPNQSSYKPIGKIDLQKVIAEEKAKEDPRLVQKPTAAGSKIDPSSDIANLKNESKLKRDSEFNSFLGTTKPPSMTESSLKNDDDKVIKGFRNEKSPAQLWAERKAKQNSGNAETKAEAPKPEVPEDEPEGEPDVKDLKSKFEGLAASEKEEEEMENKFAPPPKKSEPTIISPKPFSKPQEPVKAEEAEQPKTDYKKIGNPLPGMHIEADNEEEPEENDDDWDDDEDEAAQPPLPSRNVASGAPVQKEEPEQEEIAPSLPSRNSIPAPKQEEAPEQAPEEEIEEEAEEAAPQLPSRSSAAPPPPPRRATPEKKPKENPWSTAEYDYDAAEDNELTFVENDKIINIEFVDDDWWLGELEKDGSKGLFPSNYVSLGN [chain 1 A537S]
10 | -2.93 | chain 1 MALEPIDYTTHSREIDAEYLKIVRGSDPDTTWLIISPNAKKEYEPESTGSSFHDFLQLFDETKVQYGLARVSPPGSDVEKIIIIGWCPDSAPLKTRASFAANFAAVANNLFKGYHVQVTARDEDDLDENELLMKISNAAGARYSIQTSSKQQGKASTPPVKKSFTPSKSPAPVSKKEPVKTPSPAPAAKISSRVNDNNDDDDWNEPELKERDFDQAPLKPNQSSYKPIGKIDLQKVIAEEKAKEDPRLVQKPTAAGSKIDPSSDIANLKNESKLKRDSEFNSFLGTTKPPSMTESSLKNDDDKVIKGFRNEKSPAQLWAERKAKQNSGNAETKAEAPKPEVPEDEPEGEPDVKDLKSKFEGLAASEKEEEEMENKFAPPPKKSEPTIISPKPFSKPQEPVKAEEAEQPKTDYKKIGNPLPGMHIEADNEEEPEENDDDWDDDEDEAAQPPLPSRNVASGAPVQKEEPEQEEIAPSLPSRNSIPAPKQEEAPEQAPEEEIEEEAEEAAPQLPSRSSAAPPPPPRRATPEKKPKENPWFTAEYDYDAAEDNELTFVENDKIINIEFVDDDWWLGELEKDGSKGLFPSNYVSLGN [chain 1 A537F]
